Source: PMC4329988

Target: phosphatidyl inositol 5-phosphate 4-kinase 2β subunit (PI5P4K2β), C-terminal 3xFLAG and two 6xHis tags (chicken (endogenous in DT40))
Test: affinity purification with mass spectrometry; SILAC-iPAC: lysates of JPR3 cells (tagged PI5P4K2β) and tag-less wild-type DT40 cells, differentially SILAC labelled (K6R6 or K0R0, reciprocal labellings), mixed 1:1; captured in parallel on EZview ANTI-FLAG M2 Affinity Gel and TALON Metal Affinity Resin for 1 h; lysis buffer 1x PBS pH 7.4, 1% Triton X-100; eluted with 3xFLAG peptide or 150 mM imidazole; LC-MS/MS, MaxQuant ratios

B1: phosphatidyl inositol 5-phosphate 4-kinase 2α subunit (PI5P4K2α) (natural protein)
chain: MAAPGTVASVMASKTKTKKKHFVVQKVKLFRASDPLLSVLMWGVNHSINELSHVQIPVMLMPDDFKAYSKIKVDNHLFNKENMPSHFKFKEYCPMVFRNLRERFGIDDQDFQNSLTRSAPLANDSQARSGARFHTSYDKRYIIKTITSEDVAEMHNILKKYHQFIVECHGNTLLPQFLGMYRLTVDGVEIYMIVTRNVFSHRLSVYRKYDLKGSTVAREASDKEKAKELPTFKDNDFINDGQKIHIDENNKRMFLEKLKKDVEFLAQLKLMDYSLLVGIHDVERAEQEEVECEENDGEDEGESDGTHPIGTPPDSPGNTLNSSLPLAPGEFDPAIDVYGIKSHESAPRKEVYFMAIIDILTHYDAKKKAAHAAKTVKHGAGAEISTVNPEQYSKRFLDFIANILT
  ratio of PI5P4K2β:PI5P4K2α in the pull-down: 1.28
